Laboratory results reported in patent US5847083, “Modified p53 constructs which enhance DNA binding” (The Wistar Institute of Anatomy and Biology).

Assays:
Settings in all cases: chain copies: 4; label: 32P
[1] = molecular target: T1, p53 Arg284 delta364-393 (Homo sapiens, UniProt P04637 SEQ:1-363); test: EMSA; enhanced vs wild type
Experimental: (§1) For analysis of DNA binding activity, these proteins were incubated with ^32P-labeled oligonucleotides and subjected to electrophoresis as described [Halazonetis (1993a and 1993b) and Waterman (1995), both cited above]. […] CCC-GAACA-TGTCC-CAACA-TGTTG-GGG, each contain a p53 binding site, which is underlined. […] Oligonucleotide Egadd45has the sequence [SEQ ID NO: 31] ACA-GAACA-TGTCT-AAGCA-TGCTG-GGGA. Oligonucleotide TF3, which contains three tandem repeats of [SEQ ID NO: 32] […], is a non-specific DNA [Halazonetis et al, *EMBO J.*, 12:1021–1028 (1993)].
(§2) Figure 4: FIG. 4 illustrates the effect of the Thr284 to Arg substitution on binding of wild-type p53 and tumor-derived p53 mutants to a high affinity DNA site, and to the sites in the p21^cip1 and gadd45 genes (oligonucleotides BC, Ep21 and Egadd45, respectively). Binding was assayed by gel retardation shift analysis on native electrophoretic gels. Only the region of the gel corresponding to the p53-DNA complexes is shown. The amino acids are abbreviated using the single letter code: Arg, R; Cys, C; Gln, Q; His, H; Lys, K.

[2] = molecular target: p53 Ser249 (Homo sapiens, UniProt P04637 SEQ:1-393); test: EMSA; not activated by PAb421
Experimental: as §1

[3] = molecular target: p53 delta364-393 (Homo sapiens, UniProt P04637 SEQ:1-363); test: EMSA
Experimental: as §1, §2

[4] = molecular target: T1, p53 Arg284 delta364-393; test: EMSA; enhancement not noted on this site
Experimental: as §1, §2

B1: oligonucleotide BC (dsDNA)
DNA 1: CCGGGCATGTCCGGGCATGTCCGGGCATGT
DNA 2: ACATGCCCGGACATGCCCGGACATGCCCGG
What does the source list for B1?
binding result [1]: binds; binding result [2]: no binding

B2: oligonucleotide Ep21 (dsDNA)
DNA 1: CCCGAACATGTCCCAACATGTTGGGG
DNA 2: CCCCAACATGTTGGGACATGTTCGGG
Does B2 bind [1]?
Result: binds

B3: oligonucleotide Egadd45 (dsDNA)
DNA 1: ACAGAACATGTCTAAGCATGCTGGGGA
DNA 2: TCCCCAGCATGCTTAGACATGTTCTGT
Does B3 bind [3]?
Result: binds

Does B3 bind [4]?
Result: binds
